# According to US20090004211A1, “METHOD FOR EFFECTING LOCALIZED, NON-SYSTEMIC AND SYSTEMIC, IMMUNOGENIC TREATMENT OF CANCER USING ERP57 TRANSLOCATION” (priority 2006, published 2009):
# “Also recorded” adds a separate entry of the source.
# B1: rERP57: recombinant ERP57 protein (protein)
# chain: SDVLELTDENFESRVSDTGSAGLMLVEFFAPWCGHCKRLAPEYEAAATRLKGIVPLAKVDCTANTNTCNKYGVSGYPTLKIFRDGEEAGAYDGPRTADGIVSHLKKQAGPASVPLRTEEEFKKFISDKDASVVGFFRDLFSDGHSEFLKAASNLRDNYRFAHTNIESLVKEYDDNGEGITIFRPLHLANKFEDKTVAYTEKKMTSGKIKKFIQDSIFGLCPHMTEDNKDLIQGKDLLTAYYDVDYEKNAKGSNYWRNRVMMVAKKFLDAGHKLNFAVASRKTFSHELSDFGLESTTGEVPVVAIRTAKGEKFVMQEEFSRDGKALEQFLQEYFDGNLKRYLKSEPIPESNEGPVKVVVAENFDDIVNEEDKDVLIEFYAPWCGHCKNLEPKYKELGEKLSKDPNIVIAKMDATANDVPSPYEVKGFPTIYFSPANKKLTPKKYEGGRELNDFISYLQREATNPPIIQEEKPKKKKKAQEDL
# B2: rCRT: recombinant CRT (calreticulin) protein, which binds to the surface of the cells (protein)
# chain: DPAIYFKEQFLDGDAWTNRWVESKHKSDFGKFVLSSGKFYGDLEKDKGLQTSQDARFYALSAKFEPFSNKGQTLVVQFTVKHEQNIDCGGGYVKLFPSGLDQKDMHGDSEYNIMFGPDICGPGTKKVHVIFNYKGKNVLINKDIRCKDDEFTHLYTLIVRPDNTYEVKIDNSQVESGSLEDDWDFLPPKKIKDPDAAKPEDWDERAKIDDPTDSKPEDWDKPEHIPDPDAKKPEDWDEEMDGEWEPPVIQNPEYKGEWKPRQIDNPDYKGTWIHPEIDNPEYSPDANIYAYDSFAVLGLDLWQVKSGTIFDNFLITNDEAYAEEFGNETWGVTKAAEKQMKDKQDEEQRLKEEEEDKKRKEEEEAEDKEDDDDRDEDEDEEDEKEEDEEESPGQAKDEL
# What was measured:
# CT26 tumors = assay: Treatment of established CT26 tumors by single intratumoral injection; type: in vivo, BALB/c mice; conditions: for therapeutic effect of single intratumoral injection: agent alone
# Procedure: (§1) All animals were maintained in specific pathogen-free conditions and all experiments followed the FELASA guidelines. 3×10^6 treated CT26 cells were inoculated s.c. in […] of PBS into BALB/c six-week-old female mice, into the lower flank, while 5×10^5 untreated control cells were inoculated into the contralateral flank. For the tumorigenicity assay, 3×10^6 treated or untreated CT26 cells were injected s.c. into nu/nu mice. To assess the specificity of the immune response against CT26, injections of either 5×10^5 or 5×10^6 of CT26 were made (for the mice immunized in a standard protocol or vaccination protocol, respectively). Tumors were evaluated weekly, using a caliper. In a series of experiments, BALB/c (wild type or nu/nu) carrying palpable CT26 tumors (implanted 14 days before for wild type or 7 days before for nu/nu mice by injection of […] tumor cells) received a single intratumoral injection of […] PBS containing the same concentration of anti-cancer agents and PP1/GADD34 inhibitors as those used in vitro, as well as rCRT ([…]). For the assessment of local immune response, 3×10^5 cells were injected in 50 μl into the footpad of mice. Five days later, mice were sacrificed and the draining lymph nodes were harvested. 1×10^5 lymph node cells were cultured for 4 days alone or with 1×10^4 CT26 cells killed by a freeze-thaw cycle in 200 μl in round-bottom 96-well plates. IFN-γ was determined by ELISA.
# CT26 cells [1] = assay: Phagocytosis assay: uptake of treated tumor cells by dendritic cells; type: cell-based, mouse; conditions: for reversal of siRNA-induced defect at the level of phagocytosis by DC: CRT-specific or ERP57 specific siRNA, recombinant protein added
# Procedure: BM cells were flushed from the tibias and femurs of BALB/c mice with culture medium composed of RPMA 1640 medium supplemented with 10% heat-inactivated FBS, sodium pyruvate, […] 2-ME. 10 mM HEPES (pH 7.4), and penicillin/streptomycin. After one centrifugation, BM cells were resuspended in Tris-ammonium chloride for 2 min to lyse RBC. After one more centrifugation, BM cells (1×10^6 cells/ml) were cultured in medium supplemented with 100 ng/ml recombinant mouse FLT3 ligand in 6-well plates. […] In 12-well plates, […] adherent CT26 cells were labeled with Celltracker Orange and then incubated with drugs. […] Alternatively CT26 cells were coated with 3 μg/10^6 cells of rCRT on ice for 30 minutes and washed twice prior to addition to dendritic cells. Cells were then harvested, washed three times with medium supplemented with FBS and cocultured with immature DC for 2 hours at a ratio of 1:1 and 1:5. At the end of the incubation, cells were harvested with Versene, pooled with non-adherent cells present in the supernatant, washed and stained with CD11c-FITC antibody. Phagocytosis was assessed by FACS analysis of double positive cells. Phagocytic indexes refer to the ratio between values obtained at […] of co-incubation between DC and tumor cells. Trypsinized CT26 cells were enucleated as described. Briefly, cells were treated in 2 ml of complete RPMI medium containing cytochalasin B (10 μg/ml; Sigma) and DNase I (80 U/ml; Sigma). Cell suspension was adjusted to a final concentration of 5×10^6/ml and incubated at 37° C. for 45 minutes before being layered onto a previously prepared discontinuous Ficoll density gradient (3 ml of 100%, in 1 ml of 90% and 3 ml of 55% Ficoll Paque layer containing 5 μg/ml cytochalasin B and 40 U/ml DNase I; gradients were prepared in ultracentrifuge tubes and pre-equilibrated at 37° C. in a CO2 incubator overnight). Gradients containing cell suspensions were centrifugated in a prewarmed SW41 Beckman rotor at 25 000 rpm for 20 minutes at 30° C. The cytoplasts-enriched fraction was collected from the interface between 90 and 100% Ficoll layers, washed in complete RPMI 1640 medium, and incubated at 37° C. The cells were incubated with mitoxantrone (MTX), calyculin (CA), salubrinal (Sal) and toutomycin (TA) for the period of time indicated in the experiment. […] Alternatively cythoplasts were cocultured with immature DC for 2 hours at a ratio of 1:1 and 1:5. At the end of the incubation, cells were harvested with versene, pooled with non-adherent cells present in the supernatant, washed and stained with CD11c-FITC antibody. Phagocytosis was assessed by FACS analysis of double positive cells.
# ERP57 [2] = assay: Fluorescence detection of cell surface ERP57 (cytofluorometry); type: cell-based, mouse
# Procedure: CT26 cells (on a glass slide or in 12-well plates) were first washed with FACS buffer (1×PBS, 5% fetus bovine serum, and 0.1% sodium azide) and then incubated with rabbit anti-mouse CRT antibody (1:100, Stressgen), or rabbit anti-mouse ERP57 antibody (abcam) in FACS buffer at 4° C. for 30 min. Cells reacted with anti-rabbit IgG (H+L) Alexa fluor 488-conjugates (1:500) in FACS buffer at 4° C. for 30 min. After washing three times with FACS buffer, surface CRT and ERP57 was detected by cytofluorometric analysis on a FACS Vantage. In some experiments, cells were fixed with 4% paraformaldehyde, counterstained with Hoechst (2 μM; Sigma), followed by fluorescence microscopic assessment.
# ERP57 [3] = assay: as above; type: cell-based, mouse; conditions: murine MCA205, B16F10, J558; human HeLa, A549, HCT116
# CRT = assay: Fluorescence detection of cell surface CRT (cytofluorometry); conditions: for time after treatment at which CRT exposure is detectable: intact cells; for reversal of siRNA-induced defect at the level of CRT expression: CRT-specific or ERP57 specific siRNA, recombinant protein added
# Procedure: CT26 cells (on a glass slide or in 12-well plates) were first washed with FACS buffer (1×PBS, 5% fetus bovine serum, and 0.1% sodium azide) and then incubated with rabbit anti-mouse CRT antibody (1:100, Stressgen), or rabbit anti-mouse ERP57 antibody (abcam) in FACS buffer at 4° C. for 30 min. […] After washing three times with FACS buffer, surface CRT and ERP57 was detected by cytofluorometric analysis on a FACS Vantage. In some experiments, cells were fixed with 4% paraformaldehyde, counterstained with Hoechst (2 μM; Sigma), followed by fluorescence microscopic assessment.
# Trypsinized CT26 cells were enucleated as described. Briefly, cells were treated in 2 ml of complete RPMI medium containing cytochalasin B (10 μg/ml; Sigma) and DNase I (80 U/ml; Sigma). […] Gradients containing cell suspensions were centrifugated in a prewarmed SW41 Beckman rotor at 25 000 rpm for 20 minutes at 30° C. […] Then the cell surface CRT was detected (see materials and methods) and the viability was determined by with propidium iodine staining (2 μg/ml, Sigma) for 5 min followed by cytofluorometric analysis.
# CT26 tumor cells [4] = assay: Anti-tumor vaccination: treated dying CT26 cells injected s.c., challenge with live tumor cells in opposite flank; type: in vivo, BALB/c mice; conditions: for restoration of immunogenicity defect by recombinant protein, anti-tumor vaccination: siRNA-transfected, mitoxantrone-treated CT26 cells
# CT26 cells [5] = test system: CT26 cells
# CT26 tumor cells [6] = assay: Local immune response: tumor cells injected into footpad, IFN-γ secretion by draining lymph node cells (ELISA); type: in vivo, Balb/c mice; conditions: for restoration of immunogenicity defect by recombinant protein, interferon-γ production: siRNA-transfected, mitoxantrone-treated CT26 cells
# Procedure: as §1
# DC = DC maturation ex vivo; type: cell-based; conditions: protein alone, large range of concentrations
# sperm-egg fusion = assay: Sperm-egg fusion assay; type: cell-based, ICR mice
# Procedure: Gamete Isolation. Using mature, cumulus-free oocytes from superovulated 6-week-old to 8-week-old ICR female mice, eggs were denuded from the zona pellucida and loaded with DAPI. Sperms were collected from each cauda epididymis and vas deferens of 10- to 12-week-old ICR males. […] […] All the experiments were performed according to the animal care and use protocols approved by French and European Union Ethical Committee.
# Sperm-Egg Fusion Assay. […] After the incubation, the sperms or eggs were washed. Sperms were added at a final concentration of 1-3×10^5 sperm/ml and coincubated with gamete for 40 min at 37° C. and 5% CO2. The oocytes were then washed to release loosely bound sperms and mounted onto microscope slides. Alternatively, non-capacitated sperms were incubated with recombinant CRT or ERP57, 3 μg/10^5 sperm, for 30 min 37° C. and 5% CO2, followed by three washes with PBS. Sperm-egg fusion scored by the fluorescent labeling of sperm nuclei by DAPI transferred from preloaded eggs. Fertilization rote (FR) is the percentage of oocytes with at least one fused sperm, and Fertilization index (FI) is the mean number of fused sperm per egg. Both the FR and FI are expressed of the control treatment.
# [7] = immunocompetent BALB/c mice, 14-day-old CT26 tumors
molecule,measurement,setting,value
O=C1c2c(O)ccc(O)c2C(=O)c2c(NCCNCCO)ccc(NCCNCCO)c21 [mitoxantrone],therapeutic effect of single intratumoral injection,CT26 tumors; [7],permanent regression in some but not all cases
same,therapeutic effect of single intratumoral injection,CT26 tumors; immunodeficient nu/nu mice,no cure
same,time after treatment at which tumor cells are phagocytosed by DC,CT26 cells [1]; before apoptotic changes,within a few hours after treatment
same,uptake of treated cytoplasts by DC,CT26 cells [1]; enucleated cells (cytoplasts),as efficiently as intact cells
same,time to ERP57 exposure in enucleated cells,ERP57 [2]; cytoplasts,≤ 1 h
same,ERP57 exposure on panel of tumor cell lines,ERP57 [3],induced
same,time to CRT exposure in enucleated cells,CRT; cytoplasts,≤ 1 h
same,time after treatment at which CRT exposure is detectable,CRT,1 h
same,CRT exposure on panel of tumor cell lines,"CRT; murine MCA205, B16F10, J558, human HeLa, A549, HCT116",induced
same,immunogenicity of cell death (protection against tumor growth on rechallenge),"CT26 tumor cells [4]; CT26 cells treated in vitro with agent alone, immunocompetent BALB/c mice",elicited immunogenic cell death
peptide inhibitor: protein transduction domain-5 (RRQRRTSKLMKR) fused to the inhibitory sequence of the complex PP1/GADD34 (LKARKVRFSEKV) (RRQRRTSKLMKRLKARKVRFSEKV),toxic effect,CT26 cells [5]; 24 h of treatment,no toxic effect
same,percentage of dead cells positive for DAPI and Annexin V,CT26 cells [5]; after 24 h of treatment,did not increase the percentage of dead cells
same,ERP57 exposure at cell surface,"ERP57 [2]; CT26 cells, agent alone",increase greatly and quickly
same,time after treatment at which ERP57 exposure is detectable,ERP57 [2]; intact cells,1 h
same,CRT exposure at cell surface,"CRT; CT26 cells, agent alone",increase greatly and quickly
same,time after treatment at which CRT exposure is detectable,CRT,1 h
B1,"restoration of immunogenicity defect by recombinant protein, interferon-γ production",CT26 tumor cells [6],not restored
same,"restoration of immunogenicity defect by recombinant protein, interferon-γ production",CT26 tumor cells [6]; listed as recombinant ERP57,did not restore
same,DC maturation ex vivo,DC,could not promote DC maturation
same,reversal of siRNA-induced defect at the level of phagocytosis by DC,CT26 cells [1],did not reverse the defect
same,reversal of siRNA-induced defect at the level of CRT expression,CRT,did not reverse the defect
same,fertilization rate and index,sperm-egg fusion; non-capacitated sperm with recombinant protein,no significant effect
same,"restoration of immunogenicity defect by recombinant protein, anti-tumor vaccination",CT26 tumor cells [4],not restored
same,"restoration of immunogenicity defect by recombinant protein, anti-tumor vaccination",CT26 tumor cells [4]; listed as recombinant ERP57,did not restore the protection against tumors
B2,therapeutic effect of single intratumoral injection,CT26 tumors; [7],no major therapeutic effect
same,therapeutic effect of single intratumoral injection,CT26 tumors; immunodeficient nu/nu mice,no major therapeutic effect
same,effect of injection into a distant site on antitumoral effects of intratumorally injected etoposide,CT26 tumors; contralateral subcutaneous injection,did not ameliorate the antitumoral effects
same,therapeutic effect of intratumoral injection combined with etoposide or mitomycin C,CT26 tumors; immunocompetent animals,able to cause tumor regression
same,therapeutic effect of intratumoral injection combined with etoposide or mitomycin C,CT26 tumors; immunodeficient (athymic) animals,not in immunodeficient
same,immunogenicity of mitomycin C-treated cells with protein absorbed to plasma membrane,CT26 tumor cells [6]; mitomycin C-treated cells,greatly enhanced the immunogenicity
same,"restoration of immunogenicity defect by recombinant protein, interferon-γ production",CT26 tumor cells [6],this defect was restored
same,DC maturation ex vivo,DC,could not promote DC maturation
same,reversal of siRNA-induced defect at the level of phagocytosis by DC,CT26 cells [1],could reverse the defect; also recorded: restores phagocytosis
same,reversal of siRNA-induced defect at the level of CRT expression,CRT,could reverse the defect
same,"sperm-egg fusion, recombinant protein absorbed to sperm without prior capacitation",sperm-egg fusion; non-capacitated sperm,restores very efficiently the fusion
same,anti-tumor immune response to etoposide-treated cells coated with protein,CT26 tumor cells [4]; etoposide-treated cells,elicited a vigorous anti-tumor immune response
same,"anti-cancer immune response, protein absorbed to cells without prior cell death inducer","CT26 tumor cells [4]; live cells, no cell death inducer",failed to elicit an anti-cancer immune response
same,"restoration of immunogenicity defect by recombinant protein, anti-tumor vaccination",CT26 tumor cells [4],this defect was restored; also recorded: restores the protection against tumors
